These results are taken from article doi:10.1101/553800 (bioRxiv, 2019).

The data set deals with the molecule itself. The data set can be described thus: crystal structure.

B1: hRIO2(1-321) (domain or fragment, human, UniProt Q9BVS4 1-321, looked up)
chain: MGKVNVAKLRYMSRDDFRVLTAVEMGMKNHEIVPGSLIASIASLKHGGCNKVLRELVKHKLIAWERTKTVQGYRLTNAGYDYLALKTLSSRQVVESVGNQMGVGKESDIYIVANEEGQQFALKLHRLGRTSFRNLKNKRDYHKHRHNVSWLYLSRLSAMKEFAYMKALYERKFPVPKPIDYNRHAVVMELINGYPLCQIHHVEDPASVYDEAMELIVKLANHGLIHGDFNEFNLILDESDHITMIDFPQMVSTSHPNAEWYFDRDVKCIKDFFMKRFSYESELFPTFKDIRREDTLDVEVSASGYTKEMQADDELLHPLGP
In the case of B1, the binding result was “binds”.
